Data published in PMC9254494, “Modulation of synaptic plasticity, motor unit physiology, and TDP-43 pathology by CHCHD10” (Acta Neuropathologica Communications, 2022).

Target: Recombinant full-length human TDP-43 (human, UniProt Q13148 1-414)
Assay: cell-based or functional assay

Recombinant full-length human TDP-43, sequence (Q13148 whole entry): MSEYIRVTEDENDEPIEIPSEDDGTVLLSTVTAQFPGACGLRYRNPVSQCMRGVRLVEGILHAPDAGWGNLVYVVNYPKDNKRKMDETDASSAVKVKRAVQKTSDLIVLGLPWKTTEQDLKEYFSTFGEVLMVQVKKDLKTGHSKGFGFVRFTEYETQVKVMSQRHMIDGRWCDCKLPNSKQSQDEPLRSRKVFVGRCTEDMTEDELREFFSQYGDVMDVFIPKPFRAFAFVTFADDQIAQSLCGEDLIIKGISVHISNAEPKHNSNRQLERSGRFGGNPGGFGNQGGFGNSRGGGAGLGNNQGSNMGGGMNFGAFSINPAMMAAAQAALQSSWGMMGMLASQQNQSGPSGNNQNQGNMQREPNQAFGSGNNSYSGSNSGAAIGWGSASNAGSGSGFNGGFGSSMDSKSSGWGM

area of high-height particles > 10 nm by atomic force microscopy after co-incubation of TDP-43 (1 μM) with CHCHD10^S59L (1 μM), 37 °C, 8 h, shaking, against TDP-43 alone: > 3 fold
B1: His-tagged CHCHD10^S59L recombinant protein (natural protein, human, UniProt Q8WYQ3 17-142, looked up)
chain: AAPSAHPPAHPPPSAAAPAPAPSGQPGLMAQMATTAAGVAVGLAVGHVMGSALTGAFSGGSSEPSQPAVQQAPTPAAPQPLQMGPCAYEIRQFLDCSTTQSDLSLCEGFSEALKQCKYYHGLSSLP
